Source: article PMC7023026, “A Label-Free Fluorescent Aptasensor for Detection of Staphylococcal Enterotoxin A Based on Aptamer-Functionalized Silver Nanoclusters”

Molecular target: Staphylococcal enterotoxin A (SEA) (Staphylococcus aureus, UniProt P0A0L2 25-257)
Sequence (P0A0L2 25-257): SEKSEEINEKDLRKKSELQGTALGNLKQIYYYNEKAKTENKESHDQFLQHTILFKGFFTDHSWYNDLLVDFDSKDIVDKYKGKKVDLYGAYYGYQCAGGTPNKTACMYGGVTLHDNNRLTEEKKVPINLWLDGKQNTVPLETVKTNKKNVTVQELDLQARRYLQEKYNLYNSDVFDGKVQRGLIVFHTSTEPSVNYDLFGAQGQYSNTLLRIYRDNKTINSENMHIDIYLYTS

B1: C6G5C6-apt (AgNC template) (structured_DNA)
DNA: CCCCCCGGGGGCCCCCCAGCAGCACAGAGGTCAGATGTACTTATGCATTTCCTCCCACGATCTTATTTGAGAGTGACCCTATGCGTGCTACCGTGAA
binding result: binds
